Source: patent publication US20260242478A1 (published 2026)
Where no end group is shown, it is not given here.

B1: Phage-3319 (peptide)
peptide: LQVMCVPRWMCEGF
B2: Phage-3318 (peptide)
peptide: LPIMCKPQWMCNGF
B3: Phage-3339 (peptide)
peptide: TASMCKPPWMCLGF
modifications: cysteine pairing not given here; also: fused to pIII of bacteriophage
notes: not shown: fused to pIII of the bacteriophage
B4: Phage-3310 (peptide)
peptide: IEKLCKPQWMCEGF
B5: Phage-3328 (peptide)
peptide: VAPICRPSWMCEWL
B6: Phage-3289 (peptide)
peptide: EDYVCRPTWMCVGF
notes: Peptide-180 library clone, tested as clonal phage supernatant with the peptide fused to pIII
B7: Phage-3320 (peptide)
peptide: VGHVCIPSWMCDGM
B8: Phage-3338 (peptide)
peptide: VDALCRPSWMCIGF
modifications: cysteine pairing not given here; also: fused to pIII of bacteriophage
notes: as for B3
B9: Phage-3327 (peptide)
peptide: IGVVCKPLWMCHGF
B10: Phage-3325 (peptide)
peptide: MYIHCVPEWMCRGF
B11: Phage-3292 (peptide)
peptide: YEMRCVPDWMCVGL
notes: as for B6
B12: Phage-3342 (peptide)
peptide: MEPVCKPKWMCQGF
modifications: cysteine pairing not given here; also: fused to pIII of bacteriophage
notes: as for B3
B13: Phage-3334 (peptide)
peptide: IDRMCKPVWMCEGF
B14: Phage-3316 (peptide)
peptide: QEFRCVPEWMCIGL
B15: Phage-3340 (peptide)
peptide: MHFHCKPAWMCQGL
modifications: cysteine pairing not given here; also: fused to pIII of bacteriophage
notes: as for B3
B16: Phage-3290 (peptide)
peptide: MDVLCRPEWMCTGF
notes: as for B6
B17: Phage-3321 (peptide)
peptide: WVIKCVPSWMCAGL
B18: Phage-3309 (peptide)
peptide: VERACVPAWMCTGF
B19: Phage-3293 (peptide)
peptide: ETLMCIPNWMCDGF
notes: as for B6
B20: Phage-3312 (peptide)
peptide: DLRWCIPEWMCIGI
B21: Phage-3333 (peptide)
peptide: IEFLCKPMWMCNGF
B22: Phage-3343 (peptide)
peptide: TAPMCKPEWMCVAL
modifications: cysteine pairing not given here; also: fused to pIII of bacteriophage
notes: as for B3
B23: Phage-3311 (peptide)
peptide: LEFRCVPEWMCVGF
B24: Phage-3341 (peptide)
peptide: QYPVCKPAWMCEGF
modifications: cysteine pairing not given here; also: fused to pIII of bacteriophage
notes: as for B3
B25: Phage-3337 (peptide)
peptide: LEVLCKPTWMCVGF
modifications: cysteine pairing not given here; also: fused to pIII of bacteriophage
notes: as for B3
B26: Phage-3291 (peptide)
peptide: PIPRCQPLWMCHGF
notes: as for B6
B27: Phage-3332 (peptide)
peptide: PELWCVPSWMCEGF
B28: Phage-3331 (peptide)
peptide: VNELCIPSWMCNGF
B29: Phage-3308 (peptide)
peptide: NWKVCEPTWMCEGF
B30: Phage-3315 (peptide)
peptide: VEIACKPQWMCLGF
B31: Phage-3326 (peptide)
peptide: QVVMCTPEWMCSGF
B32: Phage-3329 (peptide)
peptide: VDRLCSPAWMCLGF
B33: Phage-3324 (peptide)
peptide: VGPRCVPEWMCIGL
B34: Phage-3317 (peptide)
peptide: SSVMCIPQWMCSGF
B35: Phage-3323 (peptide)
peptide: AGSMCTPMWMCTGF
B36: Phage-3322 (peptide)
peptide: IMPKCVPSWMCTGL
B37: Phage-3314 (peptide)
peptide: LLEMCKPHWMCVGF
B38: Phage-3330 (peptide)
peptide: MEAMCRPAWMCAGF
modifications: cysteine pairing not given here; also: fused to pIII of bacteriophage
B39: Phage-3313 (peptide)
peptide: AEHVCRPAWMCTVF
B40: Phage-3336 (peptide)
peptide: IVDICKPSWMCEGF
modifications: cysteine pairing not given here; also: fused to pIII of bacteriophage
notes: as for B3
B41: Phage-3335 (peptide)
peptide: EGRYCVPEWMCQGF
B42: Phage-3294 (peptide)
peptide: TDVMCVPQWMCDGF
notes: as for B6

Experiments:
PSMA Fab [1] = biological target: T1, PSMA Fab; experiment: clonal phage ELISA on biotinylated PSMA Fab captured on neutravidin, anti-M13 HRP detection, blocking buffer alone
T1 construct: In the panning ELISA the PSMA Fab was biotinylated and captured on neutravidin coated plates; also called Anti-PSMA Fab; 006 PSMA Fab
Procedure: (§1) Clonal phage were harvested as crude supernatants and screened via standard ELISAs. […] Prior to the addition of clonal phage. wells were incubated with blocking buffer and PSMA antigen or blocking buffer alone. Without washing or aspirating, clonal phage supernatants were then added to the wells and incubated for a short time. Wells were then washed followed by detection of bound phage using a horse radish conjugated anti-M13 antibody.

PSMA Fab [2] = biological target: T1, PSMA Fab; experiment: clonal phage ELISA on biotinylated PSMA Fab captured on neutravidin, anti-M13 HRP detection, wells pre-incubated with saturating PSMA antigen as competitor
Procedure: as §1

PSMA Fab (006 PSMA Fab) [3] = biological target: T2, PSMA Fab (006 PSMA Fab) (biotinylated (site not stated)); experiment: clonal phage ELISA on biotinylated PSMA Fab captured on neutravidin, anti-M13-HRP detection;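 also: crude clonal phage supernatants added to wells preincubated with PSMA antigen in blocking buffer or with blocking buffer alone, brief binding period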
T2 construct: also called Anti-PSMA Fab; anti-PSMA Fab

PSMA Fab (006 PSMA Fab) [4] = biological target: T2, PSMA Fab (006 PSMA Fab); experiment: clonal phage ELISA on captured PSMA Fab, wells pre-incubated with PSMA antigen as competitor
Procedure: as §1

PSMA Fab [5] = biological target: T3, PSMA Fab (biotinylated (site not stated)); experiment: clonal phage ELISA on captured PSMA Fab, wells pre-incubated with PSMA antigen as competitor; anti-M13 HRP detection
T3 construct: Biotinylated PSMA Fab captured on neutravidin coated plates in the phage ELISA; also called Anti-PSMA Fab; 006 PSMA Fab

PSMA Fab [6] = biological target: T3, PSMA Fab; experiment: clonal phage ELISA on biotinylated PSMA Fab captured on neutravidin plates, blocking buffer alone; anti-M13 HRP detection
Procedure: as §1

PSMA Fab [7] = biological target: T4, PSMA Fab (biotinylated (site not stated)); experiment: phage ELISA on captured PSMA Fab pre-incubated with PSMA antigen as competitor, anti-M13-HRP detection
T4 construct: also called Anti-PSMA Fab; 006 PSMA Fab

PSMA Fab [8] = biological target: T4, PSMA Fab; experiment: phage ELISA: clonal phage on biotinylated PSMA Fab captured on neutravidin, anti-M13-HRP detection, blocking buffer alone
Procedure: as §1

| Binder | Phage binding ELISA signal, Anti-PSMA Fab (PSMA Fab [1]) | Phage binding ELISA signal, Anti-PSMA Fab with PSMA antigen (PSMA Fab [2]) | phage binding ELISA signal (PSMA Fab [5]) | phage binding ELISA signal (PSMA Fab [6]) | also measured |
| --- | --- | --- | --- | --- | --- |
| B1 | 1.86 | 0.104 |  |  |  |
| B2 | 1.86 | 0.08 |  |  |  |
| B3 |  |  |  |  | Phage binding ELISA signal, Anti-PSMA Fab (PSMA Fab (006 PSMA Fab) [3]): 1.83; phage binding ELISA signal (Anti-PSMA Fab with PSMA) (PSMA Fab (006 PSMA Fab) [4]): 0.0684 |
| B4 | 1.87 | 0.129 |  |  |  |
| B5 |  |  | 0.0837 | 1.84 |  |
| B6 |  |  |  |  | Phage binding ELISA signal, Anti-PSMA Fab with PSMA antigen (PSMA Fab [7]): 0.0755; Phage binding ELISA signal, Anti-PSMA Fab (PSMA Fab [8]): 1.89 |
| B7 | 1.86 | 0.0683 |  |  |  |
| B8 |  |  |  |  | Phage binding ELISA signal, Anti-PSMA Fab (PSMA Fab (006 PSMA Fab) [3]): 1.84; phage binding ELISA signal (Anti-PSMA Fab with PSMA) (PSMA Fab (006 PSMA Fab) [4]): 0.0688 |
| B9 |  |  | 0.0971 | 1.85 |  |
| B10 |  |  | 0.0941 | 1.85 |  |
| B11 |  |  |  |  | Phage binding ELISA signal, Anti-PSMA Fab with PSMA antigen (PSMA Fab [7]): 0.0906; Phage binding ELISA signal, Anti-PSMA Fab (PSMA Fab [8]): 1.89 |
| B12 |  |  |  |  | Phage binding ELISA signal, Anti-PSMA Fab (PSMA Fab (006 PSMA Fab) [3]): 1.83; phage binding ELISA signal (Anti-PSMA Fab with PSMA) (PSMA Fab (006 PSMA Fab) [4]): 0.07 |
| B13 |  |  | 0.123 | 1.84 |  |
| B14 | 1.86 | 0.0577 |  |  |  |
| B15 |  |  |  |  | Phage binding ELISA signal, Anti-PSMA Fab (PSMA Fab (006 PSMA Fab) [3]): 1.83; phage binding ELISA signal (Anti-PSMA Fab with PSMA) (PSMA Fab (006 PSMA Fab) [4]): 0.0998 |
| B16 |  |  |  |  | Phage binding ELISA signal, Anti-PSMA Fab with PSMA antigen (PSMA Fab [7]): 0.0971; Phage binding ELISA signal, Anti-PSMA Fab (PSMA Fab [8]): 1.89 |
| B17 | 1.85 | 0.0907 |  |  |  |
| B18 | 1.87 | 0.0832 |  |  |  |
| B19 |  |  |  |  | Phage binding ELISA signal, Anti-PSMA Fab with PSMA antigen (PSMA Fab [7]): 0.0837; Phage binding ELISA signal, Anti-PSMA Fab (PSMA Fab [8]): 1.89 |
| B20 | 1.86 | 0.0809 |  |  |  |
| B21 |  |  | 0.0658 | 1.84 |  |

| Binder | Phage binding ELISA signal, Anti-PSMA Fab (PSMA Fab [1]) | Phage binding ELISA signal, Anti-PSMA Fab with PSMA antigen (PSMA Fab [2]) | phage binding ELISA signal (PSMA Fab [5]) | phage binding ELISA signal (PSMA Fab [6]) | also measured |
| --- | --- | --- | --- | --- | --- |
| B22 |  |  |  |  | Phage binding ELISA signal, Anti-PSMA Fab (PSMA Fab (006 PSMA Fab) [3]): 1.83; phage binding ELISA signal (Anti-PSMA Fab with PSMA) (PSMA Fab (006 PSMA Fab) [4]): 0.0952 |
| B23 | 1.87 | 0.111 |  |  |  |
| B24 |  |  |  |  | Phage binding ELISA signal, Anti-PSMA Fab (PSMA Fab (006 PSMA Fab) [3]): 1.83; phage binding ELISA signal (Anti-PSMA Fab with PSMA) (PSMA Fab (006 PSMA Fab) [4]): 0.0971 |
| B25 |  |  |  |  | Phage binding ELISA signal, Anti-PSMA Fab (PSMA Fab (006 PSMA Fab) [3]): 1.84; phage binding ELISA signal (Anti-PSMA Fab with PSMA) (PSMA Fab (006 PSMA Fab) [4]): 0.078 |
| B26 |  |  |  |  | Phage binding ELISA signal, Anti-PSMA Fab with PSMA antigen (PSMA Fab [7]): 0.085; Phage binding ELISA signal, Anti-PSMA Fab (PSMA Fab [8]): 1.89 |
| B27 |  |  | 0.0867 | 1.84 |  |
| B28 |  |  | 0.0845 | 1.84 |  |
| B29 | 1.87 | 0.0575 |  |  |  |
| B30 | 1.86 | 0.0766 |  |  |  |
| B31 |  |  | 0.0905 | 1.85 |  |
| B32 |  |  | 0.0785 | 1.84 |  |
| B33 |  |  | 0.0954 | 1.85 |  |
| B34 | 1.86 | 0.0899 |  |  |  |
| B35 |  |  | 0.0744 | 1.85 |  |
| B36 |  |  | 0.153 | 1.85 |  |
| B37 | 1.86 | 0.085 |  |  |  |
| B38 |  |  | 0.0662 | 1.84 |  |
| B39 | 1.86 | 0.0585 |  |  |  |
| B40 |  |  |  |  | Phage binding ELISA signal, Anti-PSMA Fab (PSMA Fab (006 PSMA Fab) [3]): 1.84; phage binding ELISA signal (Anti-PSMA Fab with PSMA) (PSMA Fab (006 PSMA Fab) [4]): 0.0649 |
| B41 |  |  | 0.0864 | 1.84 |  |
| B42 |  |  |  |  | Phage binding ELISA signal, Anti-PSMA Fab with PSMA antigen (PSMA Fab [7]): 0.106; Phage binding ELISA signal, Anti-PSMA Fab (PSMA Fab [8]): 1.89 |
